The supplement of paper PMC10567573

B1: ZER1 (parent)
chain: FDGPEAWGVCEPQREEVEERMWAA

Variants of: B1
Test: protein stability index of a GFP-peptide fusion (GPS, HEK-293T) (PSI 1-6); higher = more stable
Details: c terminus: a fixed tail appended
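Further: lentivirally expressed fusions sorted by FACS into six bins by GFP to DsRed ratio, PSI derived from sequencing read proportions per bin multiplied by bin number.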

Protein stability index of substitutions, site by site:
A23: Y 2.04
A24: F 1.96; Q 2.86; E 2.64; W 2.15; K 2.78; T 2.49; C 3.55; H 2.56; V 2.53; S 2.7; M 2.51; P 3.05; N 2.76; G 3.03; R 2.76; L 2.98; D 2.88; I 2.13; Y 2.49
